Here are results for 14 molecules from PMC314469, “Protein Interaction Networks by Proteome Peptide Scanning” (PLoS Biology, 2004).

Common to all, as to assay: SPOT array
Experiment [1] addresses T1, Yhr016c SH3 (YSC84_YEAST), P32793.
T1 chain: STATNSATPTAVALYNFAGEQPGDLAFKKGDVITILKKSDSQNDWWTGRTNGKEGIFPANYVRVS

Experiment [2] deals with T2, Yfr024 SH3 (LSB3_YEAST), P43603.
T2 chain: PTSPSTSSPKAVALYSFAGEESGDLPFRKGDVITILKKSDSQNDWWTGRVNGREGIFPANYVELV

The target in experiment [3] is T3, Rvs167 SH3 (RV167_YEAST), P39743.
T3 chain: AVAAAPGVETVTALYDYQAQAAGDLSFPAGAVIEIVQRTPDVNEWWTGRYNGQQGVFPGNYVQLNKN

Experiment [4] addresses T4, Myo5 SH3 (MYO5_YEAST), Q04439.
T4 chain: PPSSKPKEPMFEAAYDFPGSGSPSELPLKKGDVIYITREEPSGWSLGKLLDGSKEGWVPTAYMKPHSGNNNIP

The target in experiment [5] is T5, Boi2 SH3 (BOI2_YEAST), P39969.
T5 chain: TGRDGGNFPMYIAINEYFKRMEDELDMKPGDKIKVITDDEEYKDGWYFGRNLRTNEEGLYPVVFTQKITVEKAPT

Experiment [6] deals with T6, Boi1 SH3 (BOI1_YEAST), P38041.
T6 chain: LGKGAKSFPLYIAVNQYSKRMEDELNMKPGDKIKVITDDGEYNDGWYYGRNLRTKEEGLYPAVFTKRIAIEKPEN

In experiment [7] the target is Sho1 SH3 (SHO1_YEAST), P40073.
Sequence of Sho1 SH3 (SHO1_YEAST), P40073 (P40073 295-366): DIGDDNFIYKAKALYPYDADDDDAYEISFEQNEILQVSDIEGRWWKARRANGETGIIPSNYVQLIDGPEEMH

Turning to KKKKKNGPGAPQGY [YGR245C 314-327], the normalised SPOT signal, Boehringer light units (BLU); mean over the file's lines of this peptide turned out to be 56.7 in experiment [1]; 159 in experiment [2]; 23.5 in experiment [3]; 329 in experiment [4]; 20.2 in experiment [5]; 329 in experiment [6]. In addition, in experiment [7], the normalised SPOT signal, Boehringer light units (BLU); mean over the file's lines of this peptide amounted to 106.

KKHDKLYPKYPSVK [YFL004W 130-143]: the normalised SPOT signal, Boehringer light units (BLU); mean over the file's lines of this peptide worked out at 37.6 in experiment [1]; 184 in experiment [2]; 61.3 in experiment [3]; 340 in experiment [4]; 16.5 in experiment [5]; 435 in experiment [6]. The molecule further returned a normalised SPOT signal, Boehringer light units (BLU); mean over the file's lines of this peptide in experiment [7] of 114.

For KIVRRDYPSTPVIV [YOR019W 147-160], the normalised SPOT signal, Boehringer light units (BLU); mean over the file's lines of this peptide was 17.5 in experiment [1]; 267 in experiment [2]; 206 in experiment [3]; 366 in experiment [4]; 3.2 in experiment [5]; 235 in experiment [6]. This molecule also showed a normalised SPOT signal, Boehringer light units (BLU); mean over the file's lines of this peptide in experiment [7] of 33.5.

Turning to KFFKREYPDIPMIA [YMR190C 828-841], the normalised SPOT signal, Boehringer light units (BLU); mean over the file's lines of this peptide in experiment [1] was 42.3; in experiment [2], 120; in experiment [3], 127; in experiment [4], 155; in experiment [5], 20.2; in experiment [6], 201. Further, in experiment [7], the normalised SPOT signal, Boehringer light units (BLU); mean over the file's lines of this peptide came out at 359.

On to KIIKKSSPSVPKEE [YNL265C 154-167], for which the normalised SPOT signal, Boehringer light units (BLU); mean over the file's lines of this peptide was determined as 12.1 in experiment [1]; 191 in experiment [2]; 176 in experiment [3]; 242 in experiment [4]; 0.6 in experiment [5]; 389 in experiment [6]. In experiment [7], this molecule came in with a normalised SPOT signal, Boehringer light units (BLU); mean over the file's lines of this peptide of 1230.

KIVERGPPYPPDLR [YDR464W 649-662]: the normalised SPOT signal, Boehringer light units (BLU); mean over the file's lines of this peptide in experiment [1] was determined as 20.3; in experiment [2] it was 93.1; in experiment [3], 102; in experiment [4], 138; in experiment [5], 4.7; in experiment [6], 74.9. For the same molecule, the normalised SPOT signal, Boehringer light units (BLU); mean over the file's lines of this peptide in experiment [7] was determined as 14.8.

As to KKNKKKVPLNPLAK [YNL050C 247-260], the normalised SPOT signal, Boehringer light units (BLU); mean over the file's lines of this peptide in experiment [1] is 179; in experiment [2] it was 540; in experiment [3], 65.1; in experiment [4] it was 523; in experiment [5], 38; in experiment [6] it was 541. In experiment [7], this molecule gave a normalised SPOT signal, Boehringer light units (BLU); mean over the file's lines of this peptide of 102.

In the case of KGVLKEYPMRPYGS [YCR068W 315-328], the normalised SPOT signal, Boehringer light units (BLU); mean over the file's lines of this peptide in experiment [1] was determined as 134; in experiment [2] it was 1160; in experiment [3], 38.3; in experiment [4] it was 117; in experiment [5] it was 14; in experiment [6] it was 251. Moreover, the normalised SPOT signal, Boehringer light units (BLU); mean over the file's lines of this peptide in experiment [7] came out at 78.4.

With KITKKLGPKLPKAS [YNL297C 1291-1304], the normalised SPOT signal, Boehringer light units (BLU); mean over the file's lines of this peptide in experiment [1] worked out at 43.5; in experiment [2] it was 490; in experiment [3], 187; in experiment [4], 681; in experiment [5], 21; in experiment [6], 198. For the same molecule, the normalised SPOT signal, Boehringer light units (BLU); mean over the file's lines of this peptide in experiment [7] came to 47.2.

Consider KHEPKKSPTTPALA [YDL220C 702-715], for which the normalised SPOT signal, Boehringer light units (BLU); mean over the file's lines of this peptide in experiment [1] is 26.8; in experiment [2] it was 19.7; in experiment [3], 30.5; in experiment [4], 726; in experiment [5] it was 36.2; in experiment [6], 442. Further, the normalised SPOT signal, Boehringer light units (BLU); mean over the file's lines of this peptide in experiment [7] amounted to 21.3.

On to KKIAKGDPKIPMQN [YNL155W 157-170], for which the normalised SPOT signal, Boehringer light units (BLU); mean over the file's lines of this peptide in experiment [1] was found to be 89.5; in experiment [2], 190; in experiment [3], 147; in experiment [4], 720; in experiment [5], 1; in experiment [6] it was 779. In experiment [7], this molecule came in with a normalised SPOT signal, Boehringer light units (BLU); mean over the file's lines of this peptide of 103.

Consider KKHDKLHPNYPSVK [YPL019C 129-142], for which the normalised SPOT signal, Boehringer light units (BLU); mean over the file's lines of this peptide in experiment [1] amounted to 12.6; in experiment [2], 164; in experiment [3], 415; in experiment [4], 407; in experiment [5], 33.3; in experiment [6] it was 674. The molecule also gave a normalised SPOT signal, Boehringer light units (BLU); mean over the file's lines of this peptide in experiment [7] of 72.4.

Regarding KKIIKDVPGTPSDK [YLR079W 164-177], the normalised SPOT signal, Boehringer light units (BLU); mean over the file's lines of this peptide in experiment [1] was found to be 20; in experiment [2] it was 16.7; in experiment [3], 65.3; in experiment [4], 163; in experiment [5] it was 5.6; in experiment [6], 3810. In addition, in experiment [7], the normalised SPOT signal, Boehringer light units (BLU); mean over the file's lines of this peptide came to 155.

With KKNDRPSPLKPIQH [YKL101W 860-873], the normalised SPOT signal, Boehringer light units (BLU); mean over the file's lines of this peptide in experiment [1] is 44.4; in experiment [2] it was 254; in experiment [3], 49.2; in experiment [4], 341; in experiment [5], 0; in experiment [6], 2190. In experiment [7], the normalised SPOT signal, Boehringer light units (BLU); mean over the file's lines of this peptide was found to be 67.4.
